Experiment: yeast display, Sf9 membrane polyspecificity reagent, FACS + sequencing; frameworks hold sequencing errors
How it was run: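 Galactose induction of a Saccharomyces cerevisiae BJ5465 synthetic nanobody display library ran 36–48 hours. The cells were then stained for 1 hour at 4 °C with 10% biotinylated, detergent-solubilized Sf9 membrane reagent, pulled down on streptavidin microbeads and FACS-sorted into low and high (top ~1%) gates on expression and reagent-binding fluorescence. Labels for polyreactivity follow the gate of origin.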

Sequence	polyreactivity (PSR sort gate)
QFQLVESGGGLVQAGGSLRLSCAASALIFTPNAMGSYIPAPGKESELVAAISSSGRTSYADSVKGRFTISRDNAKNAVYLQMNSLKPEDTAVYYSNATWRWTRRGYVYWGQGTQVTLSS	low polyreactivity
QFQLVESGGGLVQAGGSLRLSCAASGFIDNTMGWYRQAPGKQRELVATISWSDGSTYYADSVKGRFTISRDNAKITVYLLMNSLKPEDTAVYYCAATTDALVGRPRYDYWGQGTQVTVSS	low polyreactivity
QFQLVESGGGLVQAGGSLRLSCAASGFIFGYNAMGWYRQAPGKERELVAAINWSGDITYYADSVKGRFTISRDNAKNTVYLQMNSLKPEDTAVYYCAADDYYIPSSWDFDYWGQGTQVTVSS	low polyreactivity
QFQLVESGGGLVQAGGSLRLSCAASGFIFYRNAMGGYRQAPGKERELVAGITSGGRPYYADSVKGRFTISRDNAKNTVYLQMNCLKPEDTGVYYCAARRSRPTYYSTGVNYWGQGTQVTVSS	high polyreactivity
QFQLVESGGGLVQAGGSLRLSCAASGFIIEYNTMGWYRQAPGKERELVAAISFIGGRTYYADSVKGRFTISRDNAKNTVYLQMNSMKPEDNAVYYCKTRDGGYYCGARRVLYYYWGQGTQVTLSS	high polyreactivity
QFQLVESGGGLVQAGGSLRLSCAASGFTFIKYAMGWYRQAPGKEREFVATISWNGGNTYYADSVKGRFTISRDNAKNTVYLQMNSLKPEDTAVYYCAARRRAFGSTYNYWGQGTQVTVSS	high polyreactivity
QFQLVESGGGLVQAGGSLRLSCAASGFTFPRYAMGWYRQAPGKERELVAAITSGDRTYYADSVKGRFTISRDNAKNTVYLQMNSLKPEDTAVYYCAKSSPRKSSQKHSFYEYNYWGQGTQVSVSS	high polyreactivity
QFQLVESGGGLVQAGGSLRLSCAASGFTFRRVTAIGWYRQAPGKERELVAGINSGDITYYADSVKGRFTFSRDNAKNTVYLQMNSLIPEDTAVYYCAARVVYGYGHNDYWGQGTQVTVSS	low polyreactivity
QFQLVESGGGLVQAGGSLRLSCAASGFTFYRNAMGWYRQAPGKERELVAAITSTGSTNYADSVKGRFTISRDNAKNTVYLQMNSLKPEDTAVYYCNKRRFGRQGMDYWGQGTQVTVSS	low polyreactivity
QFQLVESGGGLVQAGGSLRLSCAASGGILYRYAMGWYRPAPGKERELVAAIRWSGGSTYYADSVKGRFTISRDNAKNTVYLQMNSLKPEDTAVYYCAADVYYYHVLDFDYWGQGTQVTVSS	low polyreactivity
QFQLVESGGGLVQAGGSLRLSCAASGIIFAGNAMGWYRQAPGKERELVAVITSVGSTYYADSVTGRFTISRDNAKNTVYLQMNSLKPEDTAVYYCNAVSWWRYDYCGQGTQVTVSS	high polyreactivity
QFQLVESGGGLVQAGGSLRLSCAASGLIFAYYAMGWYRQAPGKERELVAAISWTGGSTYYADSVKGRFTISRDNAKNTVYLQMNSLKPEDTAVYYCNTVGKPGFYSWGQGTQVTVSS	high polyreactivity
QFQLVESGGGLVQAGGSLRLSCAASGLIFGAYDMGWYRQAPGKERELVAAITYSGGRTHYADSVKGRFTISRDNAKNTVYLQMNSLKPDDTAVYYCAAGSSHHFDYEGGYWGKGTQVTVSS	low polyreactivity
QFQLVESGGGLVQAGGSLRLSCAASGLIFRIYAMGWYRQAPGKEREFVAAIRWRGGSTYYADSVKGRFTISRDNAKYTVYLQMNSLKPEDTAVYYCAVRSCPYRPRLDYWGQGTQVTVSS	high polyreactivity
QFQLVESGGGLVQAGGSLRLSCAASGLILQNYVMGWYRQAPGKERELVAAITRSGGGTYYADSVKGRFTISRDNAKNTVYLQMNSLKPEDTAVYYCAAQRQYGKFDYWGQGTQVTVSS	high polyreactivity
QFQLVESGGGLVQAGGSLRLSCAASGLTFGYYAMGWYRQAPGKERELVAAITSRGGSTYYADSVKRRFTISRDNAKNTVYLQMNSLKPEDTAVYYCAARYAEYGSWGQGTQVTVSS	high polyreactivity

Sequence	polyreactivity (PSR sort gate)
QFQLVESGGGLVQAGGSLRLSCAASGRIFHSNAMGWYRQAPGKERELVAAITWSTGRTYYADSVKGRFTISRDNAKNTVYLQMNSLKPEDTAVYYCFRFSYYTGDYWGQGTQVTVSS	high polyreactivity
QFQLVESGGGLVQAGGSLRLSCAASGRIFVGYAMGSYRQAPGKEMELVATISSRGGSTYYADSVKGRFTISRDNAKNTLYLQMNSLKPEDTAVYYCAAVARNNRNSRQRIPYDFWGQGTQVTVSS	high polyreactivity
QFQLVESGGGLVQAGGSLRLSCAASGRIFYKYVMGWYRQAPGKERELVAAINLSGGTTYYADSVKGRFTISRDNAKNTVYLQMNSLKPEDTAVYYCAADSFTLTHYYWGQGTQVTVSS	low polyreactivity
QFQLVESGGGLVQAGGSLRLSCAASGRIFYRNAMGWYRQAPGKERELVAAINQTGGSTYYADSVKGRFTISGDNAKNTVYLQMNSLKPDDTAVYYCAVLGQVPTGSSRRYYWGQGTQVTVSS	high polyreactivity
QFQLVESGGGLVQAGGSLRLSCAASGRIFYVYGMGWYRQAPGKERELVAAISKRGDNTYYADSVKGRFTISRDNAKNTVYLQMNSLKPEDTAVYYCNVKRYGGRSDYWGQGTQVTVSS	high polyreactivity
QFQLVESGGGLVQAGGSLRLSCAASGRIFYYNAMGWYRQAPGKERELVAAITGGGSTNYADSVKGRFTISRDNAKNTVYLQMNSLKPEDTAVYYCAARHYPRNSWGYDYWGQGTQVTVSS	high polyreactivity
QFQLVESGGGLVQAGGSLRLSCAASGRTFIGYAMGWYRQAPGKERELVAAITSDGGTNYADSVKGRFTISRDNAKNTVNLQMNSQKPEDTAVYYCGARRRVSYHLYGYWGQGTQVTLSS	high polyreactivity
QFQLVESGGGLVQAGGSLRLSCAASGRTFKVYAMGCYRQAPGKERELVAAITGGGSTNYADSVKGRFTISRDNAKNTVYLQMNSLKAEDTAVYYCNARYYYRLVKWSRFSSYDFWGQGTQVTVSS	low polyreactivity
QFQLVESGGGLVQAGGSLRLSCAASGRTFYLYAMGWYRQAPGKERELVASISWNGGSTYYADSVKGLFTISRDNAKNYVYLQMNSLKPEDTAVYYCATDSHRSRLNRPYQLFPAYYYWGQGTQVTVSS	low polyreactivity
QFQLVESGGGLVQAGGSLRLSCAASGSFSGTNAMGWYRQAPGKERELVAGISYGGGSTYYADSVKGRFTISRDNAKNTVYLQMNSLKPEDTAVYYCAKYYAPYRFYYCGQGTQVTVSS	high polyreactivity
QFQLVESGGGLVQAGGSLRLSCAASGSICVLYPMGWYRQAPGKERELVAAITSGASTNYADSVKGRFTISRDNAKNTVYLQMNSQKPEDTAVYYCNTGSRLDRVDSWGQGTQLTVSS	low polyreactivity
QFQLVESGGGLVQAGGSLRLSCAASGSIFEPNAMGWYRQAPGKEREFVAAISGSGGSTYYADSVKGRFTISRDNAKNTVYLQMNSLIQEDTAVYYCATRGKRSYFRTFYYWGQGTQVTVSS	high polyreactivity
QFQLVESGGGLVQAGGSLRLSCAASGSIFGPYAMGWYRQAPGKEREFVAAISRSGTRTNFADSVKGSFTISRDSAKNTVYLQMNSLKPEDTAVYYCATAAFIVGTSRTYDYWGQGTQVTVSS	high polyreactivity
QFQLVESGGGLVQAGGSLRLSCAASGSIFGYYAMGWYRQAPGKESELVAAISASGGTTYYADSVKGRFTISRDYAKNTVYLQMNSLKPEDTAVYYCNKLYLKPGRYYYWGQGTQVTVSS	high polyreactivity
QFQLVESGGGLVQAGGSLRLSCAASGSIFPPYVMGCYRQAPGKERELVATIDSGGSTYYADSVKGRFTISRDNAKNPVYLQINSLKPEDTAVYYCAARQVSVSVHQYGYWGQGTQVTVST	low polyreactivity
QFQLVESGGGLVQAGGSLRLSCAASGSIIPIYAMGWYRQAPGKERELVAAINRSGGSTYYADSVKGRFTISRDNAKNTVYLQMNSLKPEDTAVYYCNADYGYHNQLFWGYYGWSSDHWGQGTQVTVSS	low polyreactivity

From the nanobody polyreactivity screen of Harvey et al. (2022)
